Assay results reported in the RNAGym collection of RNA variant scans (doi:10.1073/pnas.2313332121).

B1: TPR t1 (parent)
chain: GACCAAUCUGCCCUCAGAGCUCGAGAACAUCUUCGGAUGCAGAGGAGGCAGGCUUCGGUGGCGCGAUAGCGCCAACGUCCUCAACCUCCAAUGCAUCCCACCACAUGAUGAUGCCUGAAGAGCCUUGGUUUUUUG

Variants of: B1
Assay: polymerase ribozyme fitness, log enrichment relative to wild type (log ratio); higher = more active; in vitro selection for triplet polymerase activity
How it was run: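 For each subunit of a heterodimeric triplet polymerase ribozyme, a mutant library was built by PCR and transcribed, then taken through a single in vitro selection round in triplicate. Selection involved annealing to a biotinylated primer, the partner subunit and triplets, incubation frozen at −7 °C, gel excision of extended constructs, capture on streptavidin beads and RT-PCR. Genotypes were retained after Illumina sequencing of inputs and outputs only with ≥10 input reads and ≥1 read in each output. Fitness is defined as the logarithm of a genotype's enrichment relative to wild-type enrichment, using inverse-variance-weighted averages across replicates, with the logarithm taken to base 2.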

First: A2U C49A G71A C82A G120U
Second: C3A C115U U125A U129G
The “polymerase ribozyme fitness (log ratio)” value of the first is higher: -3.9 for the first, -5.92 for the second.

First: C3A G52U G60U
Second: C3G G47U G93A
The “polymerase ribozyme fitness (log ratio)” value of the first is higher: -1.88 for the first, -4.99 for the second.

Compared with C3G A16U C40U C73A, C3A U133A is higher in “polymerase ribozyme fitness (log ratio)” value: -4.45 for the first, -1.44 for the second.

Going from A2U C20A G69U C70G to C3A A43G C94G C114U, the “polymerase ribozyme fitness (log ratio)” value rises from -5.15 to -3.66.

Compared with C3A G127U, A2U G60U C82G is lower in “polymerase ribozyme fitness (log ratio)” value: -0.622 for the first, -3.31 for the second.

Compared with C3G G36U A83U, C3G C62U G93U C98U G128C is higher in “polymerase ribozyme fitness (log ratio)” value: -3.46 for the first, -2.79 for the second.

First: A2U G36C C72G
Second: A2U C53G C56U G69U
The “polymerase ribozyme fitness (log ratio)” value of the first is lower: -4.64 for the first, -1.92 for the second.

Going from C3U C4A C53G C62U C88U A90C C123A U130C to A2U C64U C124U, the “polymerase ribozyme fitness (log ratio)” value falls from -0.74 to -1.49.

Going from C3A G69U G71A A75U A103U C124G to A2U U21A G36A C56U C114A, the “polymerase ribozyme fitness (log ratio)” value rises from -4.96 to -3.98.

Compared with C3G C15A, C3A C40G G48C G77C C124U U133A is higher in “polymerase ribozyme fitness (log ratio)” value: -5.49 for the first, -4.13 for the second.

Going from C3G U7A C12U C62A G117U to C3A A43G, the “polymerase ribozyme fitness (log ratio)” value rises from -6.14 to -3.31.

First: C3G U7G G17C
Second: A2U G61U G113C C114U
The “polymerase ribozyme fitness (log ratio)” value of the first is lower: -3.73 for the first, -3.06 for the second.

Going from C3A G51A to A2U U7G C22A U33G C72U G120C, the “polymerase ribozyme fitness (log ratio)” value falls from -4.19 to -7.

Compared with C3A A50U C80U G120U, C3A G57U A75C C85G U112A C123U is higher in “polymerase ribozyme fitness (log ratio)” value: -4.64 for the first, -1.77 for the second.

Compared with A2U U38G C70U C98U G128U, C3G C4G C53U G60U G93A is higher in “polymerase ribozyme fitness (log ratio)” value: -6.66 for the first, -3.06 for the second.

Compared with C3G A5G U112C, A2U C73A G120C is lower in “polymerase ribozyme fitness (log ratio)” value: -0.649 for the first, -2.28 for the second.

Compared with A2U U116A, A2U U116C is higher in “polymerase ribozyme fitness (log ratio)” value: -5.18 for the first, -1.84 for the second.

First: A2U G135U
Second: C3G G48C
The “polymerase ribozyme fitness (log ratio)” value of the first is higher: -1.94 for the first, -2.83 for the second.

First: C3U A27C G58C C64A G93U C101A G113A C115G
Second: A2U G110C
The “polymerase ribozyme fitness (log ratio)” value of the first is lower: -7.47 for the first, -6.03 for the second.

A2U G110A and A2U G42C C72A are within 0.2 log units of each other in “polymerase ribozyme fitness (log ratio)” value: -3.63 for the first, -3.5 for the second.

Going from C3A C11G C56G C82U C115U G117A to A2U G36C C53U, the “polymerase ribozyme fitness (log ratio)” value falls from -1.87 to -3.54.

First: C3U C8A G57U G77U C79U A83C C89U C101G
Second: A2U U87G U96G
The “polymerase ribozyme fitness (log ratio)” value of the first is lower: -3.64 for the first, -3.12 for the second.

C3G G110U and A2U U59C are within 0.2 log units of each other in “polymerase ribozyme fitness (log ratio)” value: -2.82 for the first, -2.87 for the second.

Compared with C3G G47C, C3A G61A C79G U112A G135C is higher in “polymerase ribozyme fitness (log ratio)” value: -3.72 for the first, -2.83 for the second.

Going from C3U A37C G122A to C3A C73G, the “polymerase ribozyme fitness (log ratio)” value rises from -2.49 to -1.48.

First: C3A G45U G61A C88U A90C G113A
Second: A2U G10C G71U A121C
The “polymerase ribozyme fitness (log ratio)” value of the first is lower: -3.92 for the first, -1.06 for the second.

Going from C3U A95G to C3G U78A, the “polymerase ribozyme fitness (log ratio)” value falls from 0.0555 to -2.46.

Going from C3A C11U G47A G63U G127C to C3U A46C C56U A121U, the “polymerase ribozyme fitness (log ratio)” value rises from -3.33 to 1.54.

Going from C3A C8U A46U G63C U130C to C3G C13A A95C, the “polymerase ribozyme fitness (log ratio)” value falls from -1.24 to -4.35.

First: C3G G61A A90G C99U
Second: C3G A5U G60C A90G
The “polymerase ribozyme fitness (log ratio)” value of the first is lower: -3.39 for the first, -1.39 for the second.

Compared with C3U A74U U106G G110A A119G, C3U A37U A84C is higher in “polymerase ribozyme fitness (log ratio)” value: -4.14 for the first, -0.656 for the second.

Compared with C3A A37U, C3G C49G C72U A91C G128A U130G is lower in “polymerase ribozyme fitness (log ratio)” value: -2.19 for the first, -3.78 for the second.

First: C3G C4G U7C C53A C123U
Second: C3A C4A C40U C104A U112G
The “polymerase ribozyme fitness (log ratio)” value of the first is higher: 1.4 for the first, -3.41 for the second.

First: A2U C12U C64U
Second: C3G G69U A90U G93A U112C
The “polymerase ribozyme fitness (log ratio)” value of the first is lower: -2.54 for the first, -1.26 for the second.

Compared with C3A G39A C104U C115U, A2U G19U C70U A121G is lower in “polymerase ribozyme fitness (log ratio)” value: -2.58 for the first, -4.27 for the second.

First: C3A G10U
Second: C3G U129C
The “polymerase ribozyme fitness (log ratio)” value of the first is lower: -1.63 for the first, -1.37 for the second.

C3G C13U G63U A111C and C3G A29U G71A A119G are within 0.2 log units of each other in “polymerase ribozyme fitness (log ratio)” value: -2.54 for the first, -2.72 for the second.

Compared with C3U C8A U54A G69C, C3U A6U G45U C72G C79G C114A is lower in “polymerase ribozyme fitness (log ratio)” value: -1.46 for the first, -5.66 for the second.

Compared with A2U G71C C101U G127U, C3A G110C is lower in “polymerase ribozyme fitness (log ratio)” value: -2.85 for the first, -5.4 for the second.

Going from C3A C102U A121G to C3A G36A G71C C123G, the “polymerase ribozyme fitness (log ratio)” value falls from -0.526 to -1.87.

Compared with C3A G71C, A2U C70U is higher in “polymerase ribozyme fitness (log ratio)” value: -3.03 for the first, -2.28 for the second.

Compared with A2U G44U C70U A90U, A2U C89A C115A is higher in “polymerase ribozyme fitness (log ratio)” value: -5.08 for the first, -3.43 for the second.
